Experimental data: patent US20250382355A1 (Merck Sharp & Dohme, published 2025)

B1: 5A6 VHH-Fc (Fc fusion)
chain: QVQLVESGGGLAQAGGSLRLSCATSGLTFSMSAMGWFRQAPGNEREFVGVINWNGGSSRYADSVRGRFTISRDNAKNTVYLQMNSLKPEDTGVYYCAADALNIGTGEVNPRLYDYWGQGTQVMVSS
B2: 1A11 VHH-Fc (Fc fusion)
chain: QVQLVESGGGLVQAGGSLRLSCEVSGSIYSINSMGWYRQAPGKQRELVAGIVSDGRINYADSVKGRFTISRAKNTVYLQMNSLKPEDTAVYYCAADRAFVYAGDYDYLGQGTQVTVSS
B3: 5D7 VHH-Fc (Fc fusion)
chain: QVQLVESGGGLVQAGGSLRLSCAASGRTGSRYIMGWFRQAPGKEREFVAAINWRGDSTYYADSVKGRFTIARDNAKNTAYLQMNSLKPEDTAVYYCVADRGESYYYTRSTEYTYWGQGTQVTVSS
B4: 3D4 VHH-Fc (Fc fusion)
chain: QVQLVESGGGLVQPGGSLRLSCAASGFTLDLNSIGWFRQAPGKEREGVSCISPSGSRMHYADSVKGRFTISRDNAKNTVYLQMNSLKPEDTAVYYCATGSPSYHYCSMYGLEYDSWGQGTQVTVPS
B5: 19C10 VHH-Fc (Fc fusion)
chain: QVQLVESGGGLVQPGGSLRLSCAASGFTLDLNSIGWFRQAPGKEREGVSCISPSASSTHYADSVKGRFTISRDNAKNTVYLQMNSLKPEDTAVYYCATGTPSYHYCSMYGLEYDDWGQGTQVTVSS
B6: 15H1 VHH-Fc (Fc fusion)
chain: QVQLVESGGGLAQAGGSLRLSCASSGLIFSGSAMGWFRQAPGKEREFVGVISWNGRTTYADSVKGRFTISRDDAVNMVWLQMNNLKPEDTAVYYCAADHLNYGSGDVNPRTYDYWGQGTQVTVSS
B7: 1E4 VHH-Fc (Fc fusion)
chain: QVLLVESGGGLVQAGGLLRLACSASGRTFTENVMGWFRQAPGKEREFVAAINWNTGSTYYSDSRKGRFTISKDNAKNTMFLQINNLKPEDTAVYYCGGTSSSYYYIGEFIPDYWGQGTQVTVSS
B8: 8E9 VHH-Fc (Fc fusion)
chain: QVQLVESGGGLVEAGGSLRLSCVASGSSSSINAMGWYRQAPGKQRELVASISHDGETKYANSVKGRFTISRGNAKNTIYLQMNSLKPEDTAVYYCVGDVAWVVVAGEYDYWGQGTQVTVSS
B9: 15H7 VHH-Fc (Fc fusion)
chain: QVQLVESGGRLVQAGGSLRLSCAAPGRTFRNLTLGWFRQAPGKEREFVASTSWPDDEMTYYTDSVKGRFTISRDNAKNTVYLQMNSLKPEDTAVYYCAAASWSGRSTLSYDYDYWGQGTQVTVST
B10: 7A9 VHH-Fc (Fc fusion)
chain: QVQLVESGGGLVQAGGSLRLSCSASGGTASRSAMGWFRQAPGKEREFVAGISRRNSGSTYVADSYEDSVKGRFTISRDNAKNTIYLQMNSLKPEDTAVYYCAAEPTLGWYVPRRSVEYEYWGQGTQVTVSS
B11: 9B2 VHH-Fc (Fc fusion)
chain: QVQLVESGGGLVQPGGSLRLSCAASGFTLDNYAIGWFRQAPGKEREGVSCISSSDGDTQYADSVKGRFTISRDNAKNTVYLQMNSLKPEDTAVYYCAVEKVYARSWFFHLCSELDFGSWGQGTQVTVSS

How the values were obtained:
[1] = biological target: T1, Biotinylated CoV2 Spike ECD PreS-AVI protein (SARS-CoV-2, UniProt P0DTC2 14-1208); assay: Octet binning; competitor 11F8
[2] = biological target: T2, SARS-CoV-2 prefusion-stabilized spike protein (SARS-CoV-2-PreS) (SARS-CoV-2, UniProt P0DTC2 14-1208); assay: ELISA
[3] = biological target: T2, SARS-CoV-2 prefusion-stabilized spike …; assay: Biacore, apparent affinity
[4] = biological target: T1, Biotinylated CoV2 Spike ECD PreS-AVI …; assay: Octet binning; competitor 13C8
[5] = biological target: T1, Biotinylated CoV2 Spike ECD PreS-AVI …; assay: Octet binning; competitor 15H7
[6] = biological target: T1, Biotinylated CoV2 Spike ECD PreS-AVI …; assay: Octet binning; competitor Std-A
[7] = biological target: T1, Biotinylated CoV2 Spike ECD PreS-AVI …; assay: Octet binning; competitor 9B2
[8] = biological target: T1, Biotinylated CoV2 Spike ECD PreS-AVI …; assay: Octet binning; competitor Std-B
[9] = biological target: SARS-CoV-2 Gamma P.1 spike on pseudovirus (SARS-CoV-2); assay: cell-based or functional assay
[10] = biological target: SARS-CoV-2 Alpha B.1.1.7 spike on pseudovirus (SARS-CoV-2); assay: cell-based or functional assay
[11] = biological target: SARS-CoV-2 Beta B.1.351 spike on pseudovirus (SARS-CoV-2); assay: cell-based or functional assay
[12] = biological target: T1, Biotinylated CoV2 Spike ECD PreS-AVI …; assay: Octet binning; competitor 15H1
[13] = biological target: T1, Biotinylated CoV2 Spike ECD PreS-AVI …; assay: Octet binning; competitor 7A9
[14] = biological target: T1, Biotinylated CoV2 Spike ECD PreS-AVI …; assay: Octet binning; competitor Std-D
[15] = biological target: T1, Biotinylated CoV2 Spike ECD PreS-AVI …; assay: Octet binning; competitor 8E9
[16] = biological target: T1, Biotinylated CoV2 Spike ECD PreS-AVI …; assay: Octet binning; competitor 1A11
[17] = biological target: SARS-CoV-2 Omicron spike on pseudovirus (SARS-CoV-2); assay: cell-based or functional assay

Binder	binning response [1]	EC50 [2]	Kd [3]	binning response [4]	binning response [5]	binning response [6]	binning response [7]	binning response [8]	pseudovirus neutralization IC50 [9]	pseudovirus neutralization IC50 [10]	pseudovirus neutralization IC50 [11]	binning response [12]	binning response [13]	binning response [14]	binning response [15]	binning response [16]	pseudovirus neutralization IC50 [17]
B1	0.09	0.14 nM	< 0.2 nM	0.09	0.1	0.39	0.11	0.35	3.1 nM	26 nM	54 nM	0.12	0.37	0.03	0.09	0.09	
B2	0.13	0.18 nM	< 0.2 nM	0.11	0.14	0.35	0.13	0.34	6.4 nM	6.6 nM	4.1 nM	0.14	0.38	0.06	0.1	0.1	42 nM
B3	0.12	0.11 nM	< 0.2 nM	0.15	0.15	0.28	0.12	0.25				0.16	0.31	0.12	0.1	0.12	221 nM
B4	0.09	0.13 nM	< 0.2 nM	0.1	0.09	0.34	0.09	0.31	0.59 nM	1.5 nM	1.1 nM	0.1	0.32	0.04	0.08	0.08	
B5	0.12	0.06 nM	< 0.2 nM	0.1	0.1	0.35	0.11	0.35	0.8 nM	0.85 nM	0.66 nM	0.1	0.36	0.04	0.1	0.08	
B6	0.09	0.14 nM	< 0.2 nM	0.1	0.11	0.35	0.08	0.3				0.11	0.35	0.05	0.08	0.08	
B7	0.11	0.04 nM	< 0.2 nM	0.12	0.11	0.28	0.11	0.24	2.6 nM	2.2 nM	0.58 nM	0.11	0.26	0.08	0.09	0.09	
B8	0.11	0.08 nM	< 0.2 nM	0.11	0.11	0.36	0.11	0.34				0.13	0.39	0.04	0.08	0.09	429 nM
B9	0.11	0.05 nM	< 0.2 nM	0.08	0.1	0.36	0.08	0.32				0.09	0.37	0.08	0.06	0.09	
B10	0.32	0.16 nM	< 0.2 nM	0.52	0.34	0.34	0.38	0.3				0.37	0.06	0.46	0.37	0.32	44 nM
B11	0.11	0.1 nM	< 0.2 nM	0.12	0.11	0.32	0.1	0.32	21 nM	22 nM	4.2 nM	0.13	0.36	0.05	0.09	0.1	52 nM
